“And” between values parts separate entries of the source, which are not always exact repeats. Equal entries are not always repeated. One block for each binder: values may come before it.
What was measured:
[1] = target: T1, CD138 expressed on the cell surface (OPM-2 cells, MOLP-8 cells) (human, UniProt P18827 23-310); experiment: FACS on CD138+ OPM-2 cells, fluorescence-labeled secondary antibody, mean fluorescence against concentration
T1 construct: whole, on cells; also called syndecan-1; CD138+ OPM-2
T1 sequence (looked up): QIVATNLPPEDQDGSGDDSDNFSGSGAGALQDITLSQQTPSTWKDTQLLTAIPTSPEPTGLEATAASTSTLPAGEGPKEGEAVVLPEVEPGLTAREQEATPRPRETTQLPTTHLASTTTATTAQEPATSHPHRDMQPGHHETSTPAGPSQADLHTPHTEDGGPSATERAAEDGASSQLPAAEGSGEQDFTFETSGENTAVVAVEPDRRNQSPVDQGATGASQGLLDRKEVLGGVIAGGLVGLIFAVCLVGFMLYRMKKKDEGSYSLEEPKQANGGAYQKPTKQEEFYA
Excerpt: The mean fluorescence measured in these experiments was plotted against the antibody concentration.
In FIG. 6, the mean fluorescences as measure for the amount of cell bound antibody is plotted against different antibody or conjugate concentrations.

[2] = target: T2, Soluble CD138 antigen purified from U-266 cell culture supernatant, biotinylated (human, UniProt P18827 23-245, limits assumed, biotinylated with Sulfo-NHS-LC-Biotin on primary amino groups (lysine residues); positions not stated); experiment: SPR (BIACORE C), biotinylated CD138 on SA chip, conjugate as analyte; single experiment
T2 construct: Natural soluble (shed) CD138 captured on a streptavidin sensor chip; also called bCD138; biotinylated CD138
T2 sequence (looked up): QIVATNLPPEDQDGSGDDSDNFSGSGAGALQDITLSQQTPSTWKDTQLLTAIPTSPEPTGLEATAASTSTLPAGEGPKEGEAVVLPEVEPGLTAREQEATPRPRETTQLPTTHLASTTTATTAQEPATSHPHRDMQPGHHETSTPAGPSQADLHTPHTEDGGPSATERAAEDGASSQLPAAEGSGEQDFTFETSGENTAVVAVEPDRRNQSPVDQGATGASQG

[3] = target: T2, Soluble CD138 antigen purified from …; experiment: SPR (BIACORE C), biotinylated CD138 on SA chip, conjugate as analyte; mean of three experiments, +/- SD

B2: nBT062 (antibody, human IgG4, kappa, V domains shown)
VH: QVQLQQSGSELMMPGASVKISCKATGYTFSNYWIEWVKQRPGHGLEWIGEILPGTGRTIYNEKFKGKATFTADISSNTVQMQLSSLTSEDSAVYYCARRDYYGNFYYAMDYWGQGTSVTVSS
VL: DIQMTQSTSSLSASLGDRVTISCSASQGINNYLNWYQQKPDGTVELLIYYTSTLQSGVPSRFSGSGSGTDYSLTISNLEPEDIGTYYCQQYSKLPRTFGGGTKLEIKR
notes: also called cB-B4; chimeric B-B4
EC50 (read off the curve) [1]: ~1 nM

B3: B-B4-SPP-DM1 (antibody, V domains shown)
VH: B2 VH
VL: DIQMTQSTSSLSASLGDRVTISCSASQGINNYLNWYQQKPDGTVELLIYYTSTLQSGVPSRFSGSGSGTDYSLTISNLEPEDIGTYYCQQYSKLPRTFGGGTKLEIK
Kd [2]: 2.6 nM and 2.7 nM | Kd [3]: 2.6 nM

The remaining lines, values ahead:

EC50 (read off the curve) [1]: ~1 nM
B1: nBT062-SPP-DM1 (antibody, V domains shown)
VH: B2 VH
VL: B2 VL

EC50 (read off the curve) [1]: ~1 nM
B4: nBT062-SMCC-DM1 (antibody, V domains shown)
VH: B2 VH
VL: B2 VL

Reference: patent US20090175863A1 (BIOTEST, published 2009)
